Test results published in the DeepSol protein solubility set.

Assay: soluble on expression in E. coli; label from the status in PepcDB or PDB records

Sequence	soluble on expression in E. coli
MQALYQLSATGAQQQNQQIPIGLSNSLLYQQLAAHQQIAAQQHQQQLAVSAAHQTQNNIMLATSAPSLINHMENSTDGKVKDDPNSDYDLQLSIQQQLAAAAQAAQMGQTQIGPQIVGQQGQPVVATTAGSTNGSAAVTQPDPSTSSGPDGPKRLHVSNIPFRFRDPDLKTMFEKFGVVSDVEIIFNERGSKGFGFVTMERPQDAERARQELHGSMIEGRKIEVNCATARVHSKKVKPTGGILDQMNPLMAQSALAAQAQMNRALLLRSPLVAQSLLGRGAALIPGMQQPAFQLQAALAGNPLAQLQGQPLLFNAAALQTNALQQSAFGMDPAAVQAALLANEQARFQLAAAAAQGNEYIMYHQAKQQELPGRIPSSGNASAFGEQYLSNALATASLPSYQMNPALRTLNRFTPY	not soluble
MQAVNTTSGGAVGVDRKQYMFSMLSSQEVDQMYAQSYQKTLGEAKSAGVLDTSSADARRVKAIAQRLIPQTAAFRPDATGWNWEVNVVKSDELNANCGPGGKIIFYTGLIDKLKLTDDEIAAVMGHEIAHALREHGREAMSKAYGVQVASQIGALAGLGQESLQLANTGVDYLMTLPNSRANENEADLIGLELAARAGYNPEAAITLWQKMGRASGGASQPEFTSTHPSDSSRMANLQAAIPKVMPLYQQARRGKLEHHHHHH	soluble
MQELKDKIKKLGYEEIKDIDDATFIASHKNVYVYVKKVDEEQLKPELVTAITYEAMATDPISTYAWITNGTSNAYVLVEEEKAVSEIPSVFEDENKLYSGKRQLTDRDKWSIRKYQELQEKFDGLHEMIYGMKDHVNNSNDVIDEFSKLIFLETFRLYHPEYRLTKGNVTGKLFNEIYRYEYVEKHKDKAVQEIREAFKEIKDHADYVAILDNGEKANIFSADEYIKLENPNIYIAVLKALQDLGTIIIDGVERPATLRDLTGDVLGRVFDVLLRGKFENKGGMGIYLTPRQVTEAAAEMVLHDLTKDGAAKLIAKDPKTGIPTLRIGDLCCGSGGFLIKMLQKIEHYLLNKLTGDKKQYEELFEQMKEHCFIGADNAPGMVLKARINMALHGAPKCPIFQTRNSLMNTRLKPGTFDAILTNPPFSKTGISKTIKKGKTTVENPEGAEIIKYYSSDIDEDGQNRMSPYGLSLGSKPDSRGKWKEVNSVDPAVLFIDRNLQLLKPGGLLMIVVPDGILSNSGDKYVREYIMGKKNPVTGEFEGGKAILKAVISLPQVTFALSGAGAKTSLLYLKKKEHPGEKQGPVFMAVADEVGFTVKQNVEVQLGDDHNDLLKIVEAYKKGMPEDVE	not soluble
MQEYSIDITLTHPDDVLALFGSNERHLKLIEAHLGVIVHARTERVQVIGEDEEAVELARLTIKALLVLVGRGMVVNTSDVVTALSMAESHQIDQFMALYEEEIIKDNYGKAIRVKTLGQKTYVDSVKRHDVVFGVGPAGTGKTFLAVTLAVTALKRGQVKRIILTRPAVEAGESLGFLPGDLKEKVDPYLRPVYDALYHILGKEQTTRLMERDVIEIAPLAYMRGRTLDDAFVILDEAQNTTIMQMKMFLTRLGFNSKMIVNGDTSQIDLPRNVKSGLIDATQKLQGIKQIDFVYFSAKDVVRHPVVADIIKAYETSSEEMKDLLKPKASDVEADYQPGLTKYPVIGQEHLEHHHHHH	not soluble
MQFLSPLILFTSCTLLATSLLAAEQAPPPSECLIKSQQISSQIQDAKTEGNKAEQSGLEKALAEVNANCTETSLLKQREQKVLDAKREVSRRQTDLNKAMDKGDPEKINKRKDKLAESRKELQEAQTDLEKVQSDDLEHHHHHH	not soluble
MQFNNKPLIGVVHLPPLPGSPGYKGELDEVIDRAISDAAKYQEAGFDAIILENYGDFPYSKTVGKETVSAFSVVANEVKREIALPLGINVLRNDCIAAYSIAYSIKADFIRVNVLTGVAFTDQGIVEGCARELAELRTRLPSRIDVLADVHVKHATHFSNFENALLDTIERGGADAVIVTGSRTGSEVDIQELITAKRISPVPVLVGSGVNPRNIKLFWRYSDGFIVGTWVKEGGRTINEVSIERATKLAKLVKSLREGLEHHHHHH	not soluble
MQFSKMHGLGNDFVVVDGVTQNVFFTPETIRRLANRHCGIGFDQLLIVEAPYDPELDFHYRIFNADGSEVSQCGNGARCFARFVTLKGLTNKKDISVSTQKGNMVLTVKDDNQIRVNMGEPIWEPAKIPFTANKFEKNYILRTDIQTVLCGAVSMGNPHCVVQVDDIQTANVEQLGPLLESHERFPERVNAGFMQIINKEHIKLRVYERGAGETQASGSGACAAVAVGIMQGLLNNNVQVDLPGGSLMIEWNGVGHPLYMTGEATHIYDGFITL	soluble
MQFVWEAERTKAKVNAMLCLKRQAVANPLFGKGRLKIFSDDLLFIEQIPQTADNPTDKLLQFRVDFLLFPRKANKSRKNIKNVKKLRTNSLISCNYM	not soluble
MQIEKLRGQGLDEFFQGILTLENLEECYAFFDDVCTVNEIQSMAQRFQVAKMLHDGKTYNVIESETGASTATISRVKRSLHYGNDMYDVVFSRMTKPE	not soluble
MQILFNDQAMQCAAGQTVHELLEQLDQRQAGAALAINQQIVPREQWAQHIVQDGDQILLFQVIAGG	soluble
MQIRNSHLYSASRLVQNTFNASSTKEAANTIAKNNESAALSATQTARTHEGDSKGKSSNGSRSHLRSMRYAAYLAGSAYLYDKTVNDFFLSTTSLNDGKQGFTSDARLQKAEKKAEANYHAYHNRANFGGVAPTRSSLLPKLCGENLFVTMLDFRAATKVHMKNLIDTKEAHDSIANNISCIMGERVKPELLKKHGIVQTPPDFDITKGASYDCKNKYSLSGVPNQETGSYGYASRSVSNPFIEKGENHHARAINSERALTPRNCVDALQPLLQKSERLSPEAQFRAGQALLILRPLYCSSENWGDAHKVLMPFLEKKGLVSSQENQKLGATRPFTQTDMEKGIARRNTSLAGPTLNKLNIFLQKSIYNKDEKAISDLTAKKLGEMKYIPIAHFKMNEDVSSFEDSSGLADSFTGYNVSAYINHARLLSGEDRLSKKDVIAIVGCLNAIYDNASSERHTLREIAHGCFVGAGYTVEDAEDFYNDACKAAATEFYGGRAINVQSQLYSSSVDKPDS	not soluble
MQIVQIARPGSMKGWIRKAVARYAHATGRGGKFYRRFCNPSGLEWGAYLARWGNFHSVGSNFYVNTGCKFLDPSLVRIGNSVGLSDCTLIGHDGVVLLIEHRFGKHLDSVGFIDIKDNCFIGHGAIVMPRVTIGPESIVAAGAVVTKDVPPGTVYGGNPAEFICTTEQLIKRVEARCEAYPWIDLVKQRNGAYDPEVEPLLMAQRRQYFFGDSLEHHHHHH	not soluble
MQKELINEIIGEVKPKAIALFGSQAKGKAGKFSDYDLLIITKDEESRNKAEKFEKGKVEIHALTMRTALELIHKGDPFFTQIVKECKPIYGEFYIKFLREVAENVGKSKVVA	not soluble
MQKINIDRHATAQINMLANKLMLKSSTAYTQKFGIGMTEWRIISVLSSASDCSVQKISDILGLDKAAVSRTVKKLEEKKYIEVNGHSEDKRTYAINLTEMGQELYEVASDFAIEREKQLLEEFEEAEKDQLFILLKKLRNKVDQM	soluble
MQKKSQTAQSYHPMIKEFPEFYGPLTCPGQFLALLILEFGLNFAEIQKLKWENFNWNFKYLTIEKAGIKRVLPIREKFAIRVKAINNADELFAKSRQFLYTELKKFTNYSSKEIREQYILHQVKAGKSIYELATLLGLTTITTLEKYYRLEHHHHHH	not soluble
MQKPDESNEKHDIPCTSASLLDHLIQKEASAAEDTDPLDHIGNIGEAIIGQFSSGADVGTEILQNALKMFDQAMAYTNPQAPPKRKYKRKEAPIEDAQPTTTSSATLASLLTLNPVPIESSAKRFHQNDLRAGFSPRTKFDVDCSDFFLLQGSDADTQFNNLHKKLEKERTQMFDDQVSKDVERLLNTANRVHGPREWTAEEKAEFTSYCRSWRSGALGADDKLNLQKFYSKAYGKVFQGLSENKASSEESAIDFSNFMGVGSEDPANQTEDVPGGSCKASPDNFSFSTLNPRMKYEKEKEFRSAINNIFTEVFKEFHSKKQFIPKPTRLDVPPCEIEREHLSMLMSKFSIAMDDPEKEWNVDELQELRRFYTLFREKNHLPFVQTKEFGKFLRKAFGRLEHYELQRENDTSLQEKRKFWQEYRKTHVPPKRERKACAARTTPVRPYIKSNIDTKGETEEERRLRRAAYLRKWRLAQKEKHSADVMSQFKHQEDVAL	not soluble
MQKTFEEYERFFTTEKDMIPATIFTAPKKKFLQADSKFYEKRRVWILVISQHLVDNNLRSEDVRRFFHLESPDDDENNVDLGPSERKTATANDFDYLTTIGKGSFGRVYQVRHKETKKIYAMKILSKEHIRKKNEVKHVMAERNVLINNFKHPFLVSLHFSFQNKEKLYFVLDHLNGGELFSHLQREKHFSESRSRFYAAEIACALGYLHEKNIIYRDLKPENLLLDDKGYLVLTDFGLCKEDMQGSKTTSTFCGTPEYLAPEIILKKPYDKTVDWWCLGSVLYEMIFGLPPFYSKDHNEMYDKIINQPLRLKHNISVPCSELITGLLQKDRSKRLGHRNDFRDIRDHPFFLPVDWDKLLNRELKAPFIPKVKNAMDTSNISKEFVEIQIDPSSLAPQQLAVTHRDHDFENFTFVDTNRVLV	not soluble
MQKVEGIIFDMDGVLFDSERISLEFWMETFEKYGYTMTKEIYTSVMGRNRKGIIEGLTDIYDSSVPIIDLYDEKTKNMIEFMERKGAPIKLGVNELISFLKENGYKMAVATSTKRERAVKRLAKANLKDYFDAIVCGDDVVNSKPNPEIFLKAAKKINVNPKNCIVIEDSPMGVEAAYNGGIRCINVPDLKEPDEQIKSQSHKILENLLEVREYLKSLNSKECHNL	not soluble
MQLKRVAEAKLPTPWGDFLMVGFEEIATGHDHLALVYGDISGSVPVLARVHSECLTGDALFSLRCDCGFQLEAALGHIAEEGRGVLLYHRQEGRNIGLLNKIRAYALQDLGADTVEANHQLGFAADERDFTLCADMFKLLDVDEVRLLTNNPQKVKILNEAGINIVERVPLIVGRNPKNEHYLATKAAKMGHILDMKLEHHHHHH	not soluble
MQNIFDPLIIRGKSLIPIVQGGMGVGVSASGLSSAVARENGIGTIASVDLRHLHEDLLAESQINPSEEKYTSLNCTALDREIQKAKSASEGKGLIAVNVMKAVKDHAAYVRQACESGADAVVMGAGLPLDLPEMTEGYHKDVALLPILSESRGINIVLKRWMKKGILPDAIVVEHPAHAAGHLGASTVEGVNDAKFDFKRVIEETFEVFKNLGLEGEKIPLILAGGMANFEKVKTALKNWGASAVQIGTAFAVTEEGDAHLNFKKTLASAETEKVVEFMSVAGLPARGIRTKFLDSYIRREGKLQANAKADPRRCTQGLNCLTSCGLRDGLSKAGQFCIDIQLAAAFRGEVDKGLFFRGKDQLPFGNAIRTVRETIQYLLTGSEPVATLGR	not soluble
MQPSIAPSTPIPRQETVELVYRIFGDVLVPLEQVRERWFRNLNKENFSKALACGRIALPVTTLDDSHKAMQFVALDHLAAYVDQRANQAGSARRAQPGADSIAS	not soluble
MQQLLAPVHAFLRCETPQTWIDVARASASLDELLIDHCNCELKAAQTAMFLLRRYALNAESGQSLLAWAKPYEEFVYHKDRDIEQFLARDVKKNELVAVLQPNQHFSFAQDLIPPLIRLIKEEFHHFEQVLELMHARQIPYRNIRAGRYAKGMMSHVTTHEKNILRDKLIVGAYIEARSCERFAKLAPYLDAELSKFYVSLLRSEARHFEDYLKLAQLVSSEDISERVAYFGEREAELIMAPDDEFHFHSGQPQAIKYSYA	not soluble
MQQNIRIQKNQYDTATHPTASSTTWKYVTYDETSETFGMSEQVADPCNHCPKPRNYNSECKDEDVEKHFEKVMPCVHTYTIIYGNVHHLPNHPIIRNLRHNHY	soluble
